This test addresses receptor binding domain (RBD) of SARS-CoV-2 spike (SARS-CoV-2 Wuhan-Hu-1, UniProt P0DTC2). Kind of test: cryo-EM structure. Conditions: both partners purified.

B1: Nb105 (VHH)
VHH: VQLVESGGGLVQAGGSLRLSCAVSGRTFSTYGMAWFRQAPGKERDFVATITRSGETTLYADSVKGRFTISRDNAKNTVYLQMNSLKIEDTAVYYCAVRRDSSWGYSRDLFEYDYWGQGTQVTVS
notes: Cloned in pET-21b(+); also called class II Nb; source: E. coli BL21 (DE3), purified (cobalt resin, Superdex 75)
B1: the binding result is “binds”.

B2: Nb36 (VHH)
VHH: VQLVESGGGLVQAGGSLTLTCAASGRTFSSETMDMGWFRQAPGKEREFVAADSWNDGSTYYADSVKGRFTISRDSAKNTLYLQMNSLKPEDTAVYYCAAETYSIYEKDDSWGYWGQGTQVTVS
notes: Cloned in pET-21b(+); also called class III Nb; source: E. coli BL21 (DE3), purified (cobalt resin, Superdex 75)
As for B2, the binding result is reported as “binds”.

The values are drawn from article PMC8333356 (Nature Communications, 2021).
